# From US20180118829A1 (JOUNCE THERAPEUTICS, published 2018)
# T1: Mouse PD-1 (monovalent antigen) (mouse, UniProt Q02242 25-167, limits assumed)
# T1 sequence (looked up): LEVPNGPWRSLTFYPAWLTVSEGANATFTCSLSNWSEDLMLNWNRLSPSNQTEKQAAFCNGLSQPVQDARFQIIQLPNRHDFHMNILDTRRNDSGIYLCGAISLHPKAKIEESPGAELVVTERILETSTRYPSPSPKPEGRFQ
# What was measured:
# [1] = molecular target: Human PD-1 (monovalent antigen) (human, UniProt Q15116 25-167, limits assumed); assay: ForteBio BLI, IgG on AHQ sensor, monovalent antigen in solution
# Description: (§1) The affinity of the PD-1 antibodies was determined by measuring their KD by ForteBio or MSD-SET. […] Briefly, ForteBio affinity measurements were performed by loading IgGs on-line onto AHQ sensors. Sensors were equilibrated off-line in assay buffer for 30 min and then monitored on-line for 60 seconds for baseline establishment. Sensors with loaded IgGs were exposed to 100 nM antigen for 5 minutes, afterwards they were transferred to assay buffer for 5 min for off-rate measurement. Kinetics were analyzed using the 1:1 binding model.
# [2] = molecular target: T1, Mouse PD-1 (monovalent antigen); assay: as above
# Description: as §1
# [3] = molecular target: Human PD-1 L128A ECD-Fc-His6 (human); assay: BLI (ForteBio OctetRED96), PD-1 ECD-Fc-His6 panel; Reduced = affinity reduced >10-fold and <100-fold vs WT human PD-1
# Description: (§2) All protein interactions were assessed on a ForteBio OctetRED96 instrument. Proteins were diluted in kinetics buffer formulation (PBS +0.1% BSA, 0.02% Tween20, 0.05% sodium azide) with a sample volume was 220 μl/well. Ligand concentrations were normalized at 10 μg/ml and analyte concentrations at 100 nM. The blocking reagent was employed at a concentration of 250 μg/ml. Sensor equilibration time was set for 60 sec, and sample loading time established at 300 sec. Human Fc blocking time was set for 300 sec. Analysis of association time was set for 300 sec and dissociation time for 600 sec.
# [4] = molecular target: Human PD-1 I126A ECD-Fc-His6 (human); assay: as above
# Description: as §2
# [5] = molecular target: Human PD-1 R86L ECD-Fc-His6 (human); assay: BLI (ForteBio OctetRED96), PD-1 ECD-Fc-His6 panel; Y = affinity within ~5-fold of WT human PD-1
# Description: as §2
# [6] = molecular target: Human PD-1 D85G/R86L ECD-Fc-His6 (human); assay: as above
# Description: as §2
# [7] = molecular target: Rat P129H PD-1 ECD-Fc-His6 (rat); assay: as above
# Description: as §2
# [8] = molecular target: T2, Human PD-1 extracellular domain (ECD)-Fc-His6 (human); assay: as above
# T2 construct: also called Human WT PD-1 ECD-Fc fusion
# Description: as §2
# [9] = molecular target: T3, Human PD-1 N33-Q167 ECD-Fc-His6 (human); assay: as above
# T3 construct: also called N-terminal truncated variant N33-Q167
# Description: as §2
# [10] = molecular target: T4, Cynomolgus monkey PD-1 ECD-Fc-His6 (cynomolgus monkey); assay: as above
# T4 construct: also called Cyno WT PD-1 ECD-Fc fusion
# Description: as §2
# [11] = molecular target: Human PD-1 K78A ECD-Fc-His6 (human); assay: as above
# Description: as §2
# [12] = molecular target: T5, Mouse PD-1 ECD-Fc-His6 (mouse); assay: as above
# T5 construct: also called Mouse WT PD-1 ECD-Fc fusion
# Description: as §2
# [13] = molecular target: Human PD-1 D85G ECD-Fc-His6 (human); assay: as above
# Sequence of Human PD-1 D85G ECD-Fc-His6 (human) (chain, as listed by the source D85G D85G limits assumed): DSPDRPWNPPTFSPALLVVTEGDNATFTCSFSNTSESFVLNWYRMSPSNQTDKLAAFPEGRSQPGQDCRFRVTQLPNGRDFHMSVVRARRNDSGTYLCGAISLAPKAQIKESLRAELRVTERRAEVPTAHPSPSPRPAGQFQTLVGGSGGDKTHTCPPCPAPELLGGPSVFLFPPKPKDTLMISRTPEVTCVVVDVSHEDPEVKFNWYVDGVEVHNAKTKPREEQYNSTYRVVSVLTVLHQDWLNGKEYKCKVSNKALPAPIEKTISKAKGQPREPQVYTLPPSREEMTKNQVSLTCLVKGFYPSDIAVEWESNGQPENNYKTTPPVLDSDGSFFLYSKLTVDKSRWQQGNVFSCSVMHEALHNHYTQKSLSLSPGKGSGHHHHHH
# Description: as §2
# Sequence of Human PD-1 (monovalent antigen) (Q15116 25-167 limits assumed): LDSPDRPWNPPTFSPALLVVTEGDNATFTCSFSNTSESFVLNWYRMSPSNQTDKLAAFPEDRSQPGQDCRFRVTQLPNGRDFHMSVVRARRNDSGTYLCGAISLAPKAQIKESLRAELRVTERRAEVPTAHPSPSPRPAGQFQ
# Sequence of Rat P129H PD-1 ECD-Fc-His6 (rat) (chain, as listed by the source P129H P129H limits assumed): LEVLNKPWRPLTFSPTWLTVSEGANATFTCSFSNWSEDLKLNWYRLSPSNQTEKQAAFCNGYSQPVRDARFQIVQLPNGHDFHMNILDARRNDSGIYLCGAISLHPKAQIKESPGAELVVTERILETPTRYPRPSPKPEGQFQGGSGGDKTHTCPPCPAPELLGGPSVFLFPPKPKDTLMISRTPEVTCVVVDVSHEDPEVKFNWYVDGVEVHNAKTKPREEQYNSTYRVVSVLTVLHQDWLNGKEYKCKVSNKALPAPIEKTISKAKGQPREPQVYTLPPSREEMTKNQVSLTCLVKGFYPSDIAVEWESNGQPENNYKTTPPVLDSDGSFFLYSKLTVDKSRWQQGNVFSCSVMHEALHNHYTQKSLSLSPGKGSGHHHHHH
# Sequence of Human PD-1 I126A ECD-Fc-His6 (human) (chain, as listed by the source I126A I126A limits assumed): as the sequence (chain, as listed by the source D85G D85G limits assumed) above, with G60D, I101A counted along it
# T2 sequence (chain, as listed by the source limits assumed): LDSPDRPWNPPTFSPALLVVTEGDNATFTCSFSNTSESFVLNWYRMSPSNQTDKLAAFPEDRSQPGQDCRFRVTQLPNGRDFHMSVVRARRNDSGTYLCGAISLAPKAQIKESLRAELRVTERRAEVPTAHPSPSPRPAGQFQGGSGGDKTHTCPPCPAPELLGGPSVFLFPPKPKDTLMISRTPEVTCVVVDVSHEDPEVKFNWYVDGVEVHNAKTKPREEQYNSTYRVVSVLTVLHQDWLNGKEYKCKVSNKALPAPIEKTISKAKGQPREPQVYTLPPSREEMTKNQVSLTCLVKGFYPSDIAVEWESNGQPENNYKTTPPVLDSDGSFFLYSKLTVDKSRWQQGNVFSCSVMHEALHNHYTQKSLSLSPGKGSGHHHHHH
# T4 sequence (chain, as listed by the source limits assumed): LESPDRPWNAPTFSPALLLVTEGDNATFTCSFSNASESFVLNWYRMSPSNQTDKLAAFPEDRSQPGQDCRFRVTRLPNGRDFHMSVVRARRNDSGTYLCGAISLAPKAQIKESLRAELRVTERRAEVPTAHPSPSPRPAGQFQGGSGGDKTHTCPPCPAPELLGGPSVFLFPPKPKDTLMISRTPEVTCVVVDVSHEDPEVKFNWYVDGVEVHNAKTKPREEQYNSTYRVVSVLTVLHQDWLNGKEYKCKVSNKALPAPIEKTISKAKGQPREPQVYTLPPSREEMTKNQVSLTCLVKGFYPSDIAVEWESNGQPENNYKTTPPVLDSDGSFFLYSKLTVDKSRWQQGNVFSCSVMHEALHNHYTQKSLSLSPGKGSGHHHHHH
# Sequence of Human PD-1 K78A ECD-Fc-His6 (human) (chain, as listed by the source K78A K78A limits assumed): as the sequence (chain, as listed by the source D85G D85G limits assumed) above, with K53A, G60D counted along it
# T3 sequence (chain, as listed by the source limits assumed): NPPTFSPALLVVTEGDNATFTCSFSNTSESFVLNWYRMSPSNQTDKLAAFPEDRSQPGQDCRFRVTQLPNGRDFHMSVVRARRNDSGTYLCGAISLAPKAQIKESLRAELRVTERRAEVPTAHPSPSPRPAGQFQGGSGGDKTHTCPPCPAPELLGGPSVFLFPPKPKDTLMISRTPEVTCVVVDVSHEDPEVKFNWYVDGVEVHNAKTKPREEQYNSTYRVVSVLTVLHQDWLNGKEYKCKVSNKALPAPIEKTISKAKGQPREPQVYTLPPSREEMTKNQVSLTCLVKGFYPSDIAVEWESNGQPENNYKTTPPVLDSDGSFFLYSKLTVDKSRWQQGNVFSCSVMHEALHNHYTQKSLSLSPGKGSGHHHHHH
# Sequence of Human PD-1 R86L ECD-Fc-His6 (human) (chain, as listed by the source R86L R86L limits assumed): as the sequence (chain, as listed by the source D85G D85G limits assumed) above, with G60D, R61L counted along it
# Sequence of Human PD-1 D85G/R86L ECD-Fc-His6 (human) (chain, as listed by the source D85G R86L D85G R86L limits assumed): as the sequence (chain, as listed by the source D85G D85G limits assumed) above, with R61L counted along it
# Sequence of Human PD-1 L128A ECD-Fc-His6 (human) (chain, as listed by the source L128A L128A limits assumed): as the sequence (chain, as listed by the source D85G D85G limits assumed) above, with G60D, L103A counted along it
binder,measurement,setting,value
"antibody 13406 (antibody, V domains shown) VH: QVQLVQSGAEVKKPGASVKVSCKASGYTFDQYYMHWVRQAPGQGLEWMGIINPSGGSTAYAQKFQGRVTMTRDTSTSTVYMELSSLRSEDTAVYYCARGGTYYDYTYWGQGTLVTVSS VL: DIQMTQSPSTLSASVGDRVTITCRASQSISSWLAWYQQKPGKAPKLLIYEASSLESGVPSRFSGSGSGTEFTLTISSLQPDDFATYYCQQYNSFPPTFGGGTKVEIK",Kd,[1],3.2 nM
same,Kd,[2],3.5 nM
"13407 Fab (Fab, V domains shown) VH: QVQLVQSGAEVKKPGASVKVSCKASGYTFPSYYMHWVRQAPGQGLEWMGIINPEGGSTAYAQKFQGRVTMTRDTSTSTVYMELSSLRSEDTAVYYCARGGTYYDYTYWGQGTLVTVSS VL: DIQMTQSPSTLSASVGDRVTITCRASQSISSWLAWYQQKPGKAPKLLIYEASSLESGVPSRFSGSGSGTEFTLTISSLQPDDFATYYCQQYNSFPPTFGGGTKVEIK",binding result,[3],binds
same,binding result,[4],binds
same,binding result,[5],binds
same,binding result,[6],binds
same,binding result,[7],binds
same,binding result,[8],binds
same,binding result,[9],binds
same,binding result,[10],binds
same,binding result,[11],binds
same,binding result,[12],binds
same,binding result,[13],binds
"antibody 13405 (antibody, V domains shown) VH: QVQLVQSGAEVKKPGASVKVSCKASGYTFASYYMGWVRQAPGQGLEWMGIINPAGGSTAYAQKFQGRVTMTRDTSTSTVYMELSSLRSEDTAVYYCARHEYGMDVWGQGTTVTVSS VL: DIQMTQSPSTLSASVGDRVTITCRASQSISSWLAWYQQKPGKAPKLLIYEASSLESGVPSRFSGSGSGTEFTLTISSLQPDDFATYYCQQYNSFPPTFGGGTKVEIK",Kd,[1],73 nM
same,Kd,[2],7.2 nM
"antibody 13408 (antibody, V domains shown) VH: QVQLVQSGAEVKKPGASVKVSCKASGYTFSDYYMHWVRQAPGQGLEWMGIINPSGGVTAYAQKFQGRVTMTRDTSTSTVYMELSSLRSEDTAVYYCARGGTYYDYTYWGQGTLVTVSS VL: DIQMTQSPSTLSASVGDRVTITCRASQSISSWLAWYQQKPGKAPKLLIYEASSLESGVPSRFSGSGSGTEFTLTISSLQPDDFATYYCQQYNSFPPTFGGGTKVEIK",Kd,[1],1.2 nM
same,Kd,[2],5.3 nM
"antibody 13407 (antibody, V domains shown) VH: QVQLVQSGAEVKKPGASVKVSCKASGYTFPSYYMHWVRQAPGQGLEWMGIINPEGGSTAYAQKFQGRVTMTRDTSTSTVYMELSSLRSEDTAVYYCARGGTYYDYTYWGQGTLVTVSS VL: DIQMTQSPSTLSASVGDRVTITCRASQSISSWLAWYQQKPGKAPKLLIYEASSLESGVPSRFSGSGSGTEFTLTISSLQPDDFATYYCQQYNSFPPTFGGGTKVEIK",Kd,[1],3.9 nM
same,Kd,[2],3.2 nM
"antibody 12228 (antibody, V domains shown) VH: QVQLVQSGAEVKKPGASVKVSCKASGYTFTSYYMHWVRQAPGQGLEWMGIINPSGGSTSYAQKFQGRVTMTRDTSTSTVYMELSSLRSEDTAVYYCARGGTYYDYTYWGQGTLVTVSS VL: DIQMTQSPSTLSASVGDRVTITCRASQSISSWLAWYQQKPGKAPKLLIYEASSLESGVPSRFSGSGSGTEFTLTISSLQPDDFATYYCQQYNSFPPTFGGGTKVEIK",Kd,[1],49 nM
same,Kd,[2],6.3 nM
